{"source": "patent US7604970B2", "about": "“Variants of the PapM polypeptide of bacteria of the Streptomyces genus” (Aventis Pharma S.A., priority 2002, dated 2009)", "assay_type_in_all_cases": "biochemical, S. pristinaespiralis", "key": {"[1]": {"assay": "Competition assay between the two substrates", "details": "both substrates present: 1 mM 4-amino-L-phenylalanine, 2 mM 4-methylamino-L-phenylalanine, 2 mM SAM", "protocol": "The ratio of the rates of conversion of the two competitive substrates is given by the formula: V1/V2=(Kcat1/Km1)[S1]/(Kcat2/Km2)[S2]\nThe amount of substrate and of enzyme brought into play is thus avoided by taking care not to convert not more than 2% of each of the substrates.\nUsing the same conditions for assaying the methylation activity as those described in example 7-1, with the exception of the concentration of SAM, which is 2 mM, and the methyl group of which is radioactively labeled with the carbon 14 isotope (2.5 Ci/mol), and with the simultaneous presence of the two substrates at the concentrations, for 4-amino-L-phenylalanine, of 1 mM and, for 4-methylamino-L-phenylalanine, of 2 mM, the rate of each of the reactions could thus be determined.\nThe assays were carried out simultaneously on the mutants described in examples 4 to 6, using the same substrate solutions."}, "[2]": {"assay": "Km and Vmax of purified PapM methylases, methylation 1", "protocol": "(§1) The enzyme fractions to be assayed (1 to 20 units) are incubated for 30 min at 27° C. in a total volume of 200 μl of 50 mM bis-tris-propane buffer, pH 6.8, containing SAM (200 μM) the methyl group of which is radioactively labeled with the carbon 14 isotope (2 Ci/mol), in the presence of 4-amino-L-phenylalanine (1 mM) for assaying methylation 1, or of 4-methylamino-L-alanine (2.5 mM) for assaying methylation 2.\n(§2) The reaction is stopped by adding 16 μl of 37% hydrochloric acid and then 20 μl of sodium heptanesulfonate at 240 g/l. After centrifugation, 150 μl of supernatant are injected into the HPLC system in the following gradient mode: • Mobile phase: Eluent A=1.2 g of heptanesulfonate+2.5 ml of glacial acetic acid+water (qs 1 000 ml). Eluent B=1.2 g of sodium heptanesulfonate+2.5 ml of glacial acetic acid+300 ml of acetonitrile+water (qs 1 000 ml). The gradient is produced in the following way: at t=0, 30% of eluent B; t=16 (min), 30% of eluent B; t=17 (min), 100% of eluent B; t=20 min, 100% of eluent B; t=21 min, 30% of eluent B; t=25 (min), 30% of eluent B. • Stationary phase: Nucleosil® C 18 5 μm×4.6 mm column (Macherey-Nagel)\n(§3) On leaving the column, the substrates and products of the enzyme reaction are quantified by absorption at 254 nm. This detection is coupled to an on-line radiochemical detection using a Berthold LB506 detector equipped with a solid scintillation cell of the GT400-U4 type. This makes it possible to specifically follow the incorporation of radioactive methyl groups into the reaction products.\n(§4) The unit of enzyme activity for methylation 1 (and also for methylation 2) is defined as the amount of enzyme required to incorporate 1 nmol of methyl group into 4-amino-L-phenylalanine (or into 4-methylamino-L-phenylalanine).\n(§5) The conditions for assaying the methylation activity are identical to those described in example 7-1, with the exception of the 2 mM concentration of SAM, the methyl group of which is radioactively labeled with the carbon 14 isotope (2 Ci/mol). Concentration ranges varying from 0.1 to 60 mM for each of the substrates 4-amino-L-phenylalanine for methylation 1 and 4-methylamino-L-phenylalanine for methylation 2 are prepared. For each concentration of each substrate, the reaction rate is measured and expressed in nmol converted per hour and per mg of proteins.\n(§6) The values of the kinetics constants are deduced from the Michaelis-Menten curves plotted using the Enzfiter software."}, "[3]": {"assay": "Km and Vmax of purified PapM methylases, methylation 2", "protocol": "as §1, §2, §3, §4, §5, §6"}, "[4]": {"assay": "Ratios of kinetic constants and enzyme efficiencies, methylation 1 / methylation 2", "protocol": "as §5, §6\nFor each mutant form of the enzyme, the enzyme efficiency of each methylation reaction (methylation 1 and methylation 2) was determined. This efficiency is defined by the ratio Vm1/Km1 (methylation 1) or Vm2/Km2 (methylation 2).\nThen, for each form, the ratio of the enzyme efficiencies (methylation reaction 1/methylation reaction 2) was determined. This ratio is equal to Vm1.Km2/Vm2.Km1."}, "[5]": {"assay": "Enzymatic screening: simultaneous assay of the two methylation activities of PapM (ratio r)", "details": "7 sequenced clones; experiment in which wild-type ratio was 0.40", "description": "The ratio of the respective rates V1 and V2 of methylation of L-PAPA and of L-MMPAPA is dependent on the kinetic parameters of PapM (Km1 and Vmax1 for L-PAPA, Km2 and Vmax2 for L-MMPAPA), and is also dependent on the respective concentrations S1 and S2 of L-PAPA and of L-MMPAPA, according to the formula: V1/V2=(Vmax1//Km1)[S1]/(Vmax2/Km2)[S2]\nSimultaneous measurement of the two rates of methylation V1 and V2 at fixed concentrations of S1 and S2 makes it possible to determine the ratio of the kinetic constants of PapM for L-PAPA and L-MMPAPA. This ratio is independent of the amount of PapM used in the assay. When the selectivity of the mutated PapM enzyme increases for L-PAPA, the ratio V1/V2 should increase and, conversely, this ratio should decrease when the mutated PapM enzyme preferentially methylates L-MMPAPA.\nFinally, in order to avoid small variations in Km and to, on the contrary, promote either large variations in Km or modifications in the Vmax values, the concentrations of L-PAPA and L-MMPAPA are fixed at approximately 6 times the Km in order to be under conditions of saturation. Under such conditions, with the wild-type PapM enzyme, the rate of methylation 1 and the rate of methylation 2 are virtually equal.\nThe simultaneous assaying of the two methylation activities of PapM is described in example 7.1. This assaying of the methylase activities of PapM is carried out in the presence of 1.5 mM L-PAPA, 3 mM L-MMPAPA and […].\nThe 96-well plates of the library of E. coli clones producing the mutated PapM enzymes, prepared as described in example 3, are thawed at 23° C. Next, 25 μl of mixture A are added to the 200 μl of the culture on LB medium contained in each well. Mixture A is obtained by adding successively (1) 3 ml of 50 mM Bis-Tris-Propane buffer, pH 10, in which have been dissolved 12 mg of L-PAPA, and 71 mg of (DL)-MMPAPA in dihydrochloride form and prepared as described in WO 96/01901-A1, (2) 0.7 ml of 4 mM SAM in water, (3) 0.7 ml of [^14C-Me]-SAM at 25 μCi/ml and 60 mCi/mmol (AMERSHAM), (4) 0.6 ml of 100 mM Bis-Tris-Propane buffer, pH 6.8, and (5) 56 mg of the disodium salt of EDTA. The amounts are given for the preparation of a 5 ml volume of mixture A. The plate is then sealed with an adhesive film, and then incubated at 27° C. for 2 hours. The reaction is stopped with 40 μl of a stop solution. The stop solution (for a volume of 4 ml) is obtained by mixing 2.2 ml of a 24 mg/ml sodium heptanesulfonate solution in water with 1.8 ml of concentrated hydrochloric acid. After centrifugation of the plates at 3 000 g for 5 min, approximately 100 μl of the supernatant of each well are analyzed by HPLC in the system described in example 7.1.\nFor each well, the respective areas A1 and A2 of the MMPAPA and DMPAPA peaks derived from recording the radiochemical detection are integrated. A ratio r is then calculated in the following way: r=A1/(A1+A2) In the case of the wild-type PapM methylase, r=0.50±0.05."}, "[6]": {"details": "purified enzyme, 2 mM SAM, substrate 0.1 to 60 mM"}}, "data": [{"molecule": "Mutant 49/66: doubly mutated PapM, Thr192 > Ile and Gly249 > Ser, plasmids pVRC718 / pVRC721 (protein, UniProt P72542 1-292, looked up, variant T192I G249S) 4-amino-L-phenylalanine/4-meth …: MTAAAPTLAQALDEATGQLTGAGITADAARADTRLLAAHACQVAPGDLDTCLAGPVPPRFWHYVRRRLTREPAERIVGHAYFMGHRFDLAPGVFVPKPETEEITRDAIARLEALVRRGTTAPLVVDLCAGPGTMAVTLARHVPAARVLGIELSQAAARAARRNARGTGARIVQGDARDAFPELSGTVDLVVINPPYIPIGLRTSAPEVLEHDPPLALWAGEEGLGMIRAMERTAARLLAPGGVLLLEHSSYQLASVPALFRATGRWSHASSRPTCNDGCLTAVRNHTCAPPA", "values": [{"measurement": "first methylation reaction relative to the second (selectivity)", "setting": "[1]", "result": 7, "unit": "times"}, {"measurement": "Km1", "setting": "[2]; Table 7", "result": 9}, {"measurement": "Vm1", "setting": "[2]; Table 7", "result": "28 000"}, {"measurement": "Vm1/Km1 (enzyme efficiency, methylation 1)", "setting": "[2]; Table 7", "result": "3 110"}, {"measurement": "Vm1 (PAPA)", "setting": "[2]; purified enzyme, 2 mM SAM", "result": "28 000 nmol/h/mg"}, {"measurement": "Km1 (PAPA)", "setting": "[2]; [6]", "result": 9, "unit": "mM"}, {"measurement": "Km2", "setting": "[3]; Table 7", "result": 22}, {"measurement": "Vm2", "setting": "[3]; Table 7", "result": "9 100"}, {"measurement": "Vm2/Km2 (enzyme efficiency, methylation 2)", "setting": "[3]; Table 7", "result": 410}, {"measurement": "Vm2 (MMPAPA)", "setting": "[3]; purified enzyme, 2 mM SAM", "result": "9 100 nmol/h/mg"}, {"measurement": "Km2 (MMPAPA)", "setting": "[3]; [6]", "result": 22, "unit": "mM"}, {"measurement": "Ratio Km2/Km1", "setting": "[4]; Table 5", "result": 2.5}, {"measurement": "Ratio Vm1/Vm2", "setting": "[4]; Table 5", "result": 3.1}, {"measurement": "Vm1 · Km2 / Vm2 · Km1 (ratio of enzyme efficiencies)", "setting": "[4]; Table 7", "result": 7.58}]}, {"molecule": "Mutant 45: PapM variant Thr274 > Ile (protein, UniProt P72542 1-292, looked up, variant T274I) 4-amino-L-phenylalanine/4-meth …: MTAAAPTLAQALDEATGQLTGAGITADAARADTRLLAAHACQVAPGDLDTCLAGPVPPRFWHYVRRRLTREPAERIVGHAYFMGHRFDLAPGVFVPKPETEEITRDAIARLEALVRRGTTAPLVVDLCAGPGTMAVTLARHVPAARVLGIELSQAAARAARRNARGTGARIVQGDARDAFPELSGTVDLVVTNPPYIPIGLRTSAPEVLEHDPPLALWAGEEGLGMIRAMERTAARLLAPGGVLLLEHGSYQLASVPALFRATGRWSHASSRPICNDGCLTAVRNHTCAPPA", "values": [{"measurement": "Ratio (r redetermined)", "setting": "[5]", "result": 0.52}]}, {"molecule": "Mutant 74D4: PapM variant clone, Gly249 > Ser (same substitution as mutant 49) (protein, UniProt P72542 1-292, looked up, variant G249S) 4-amino-L-phenylalanine/4-meth …: MTAAAPTLAQALDEATGQLTGAGITADAARADTRLLAAHACQVAPGDLDTCLAGPVPPRFWHYVRRRLTREPAERIVGHAYFMGHRFDLAPGVFVPKPETEEITRDAIARLEALVRRGTTAPLVVDLCAGPGTMAVTLARHVPAARVLGIELSQAAARAARRNARGTGARIVQGDARDAFPELSGTVDLVVTNPPYIPIGLRTSAPEVLEHDPPLALWAGEEGLGMIRAMERTAARLLAPGGVLLLEHSSYQLASVPALFRATGRWSHASSRPTCNDGCLTAVRNHTCAPPA", "values": [{"measurement": "Ratio (r redetermined)", "setting": "[5]", "result": 0.63}]}, {"molecule": "Mutant 74D5: PapM variant clone, Met226 > Ile (same substitution as mutant 69) (protein, UniProt P72542 1-292, looked up, variant M226I) 4-amino-L-phenylalanine/4-meth …: MTAAAPTLAQALDEATGQLTGAGITADAARADTRLLAAHACQVAPGDLDTCLAGPVPPRFWHYVRRRLTREPAERIVGHAYFMGHRFDLAPGVFVPKPETEEITRDAIARLEALVRRGTTAPLVVDLCAGPGTMAVTLARHVPAARVLGIELSQAAARAARRNARGTGARIVQGDARDAFPELSGTVDLVVTNPPYIPIGLRTSAPEVLEHDPPLALWAGEEGLGIIRAMERTAARLLAPGGVLLLEHGSYQLASVPALFRATGRWSHASSRPTCNDGCLTAVRNHTCAPPA", "values": [{"measurement": "Ratio (r redetermined)", "setting": "[5]", "result": 0.52}]}, {"molecule": "Mutant 52: PapM variant Gly249 > Asp (protein, UniProt P72542 1-292, looked up, variant G249D) 4-amino-L-phenylalanine/4-meth …: MTAAAPTLAQALDEATGQLTGAGITADAARADTRLLAAHACQVAPGDLDTCLAGPVPPRFWHYVRRRLTREPAERIVGHAYFMGHRFDLAPGVFVPKPETEEITRDAIARLEALVRRGTTAPLVVDLCAGPGTMAVTLARHVPAARVLGIELSQAAARAARRNARGTGARIVQGDARDAFPELSGTVDLVVTNPPYIPIGLRTSAPEVLEHDPPLALWAGEEGLGMIRAMERTAARLLAPGGVLLLEHDSYQLASVPALFRATGRWSHASSRPTCNDGCLTAVRNHTCAPPA", "values": [{"measurement": "Ratio (r redetermined)", "setting": "[5]", "result": 0.66}]}, {"molecule": "Mutant 69: PapM variant Met226 > Ile (protein, UniProt P72542 1-292, looked up, variant M226I) 4-amino-L-phenylalanine/4-meth …: MTAAAPTLAQALDEATGQLTGAGITADAARADTRLLAAHACQVAPGDLDTCLAGPVPPRFWHYVRRRLTREPAERIVGHAYFMGHRFDLAPGVFVPKPETEEITRDAIARLEALVRRGTTAPLVVDLCAGPGTMAVTLARHVPAARVLGIELSQAAARAARRNARGTGARIVQGDARDAFPELSGTVDLVVTNPPYIPIGLRTSAPEVLEHDPPLALWAGEEGLGIIRAMERTAARLLAPGGVLLLEHGSYQLASVPALFRATGRWSHASSRPTCNDGCLTAVRNHTCAPPA", "values": [{"measurement": "Ratio (r redetermined)", "setting": "[5]", "result": 0.51}]}]}
